This note sets out measurements from patent US20080044360A1 (COLLAGEN MEDICAL, published 2008).

Bridge positions count the residues as written; N and C are the ends. Square brackets hold non-standard residues; d marks the D form. Primed or numbered codes have the meaning given here. Side chains are listed from the residue outwards. Ends that are not written are not given here. * marks the point of attachment. Gd^D = GdDOTAGA (gadolinium DOTAGA chelate); Tyr(3-Cl) = N[C@@H](Cc1ccc(O)c(Cl)c1)C(=O)O; Gd^T(3) = GdDTPA attached via thiourea; 1Nal = N[C@@H](Cc1cccc2ccccc12)C(=O)O; hPhe = N[C@@H](CCc1ccccc1)C(=O)O; Cha = N[C@@H](CC1CCCCC1)C(=O)O; K(Gd^T)Gd^T = not defined here; Pen = CC(C)(S)[C@H](N)C(=O)O; Gd^T″ = GdDTPA-thiourea; Cbz = O=C(OCc1ccccc1)*

B1: Compound ID 961 (peptide)
peptide: {Gd^D}-GK([Gly-Gd^D])QWHCTTYFPHHYCLYG
modifications: disulfide 6-15 (inferred)
B2: Compound ID 909 (peptide)
peptide: {Gd^T″}-AWHCTTLFPHH[dY]CLYG
modifications: disulfide 4-13 (inferred); not fully specified (C-terminus)
B3: Compound ID 918 (peptide)
peptide: {Gd^T(3)}-GQWHCTT[Cha]FPHH[dY]CLYG
modifications: disulfide 5-14; not fully specified (C-terminus)
B4: Compound ID 996 (peptide)
peptide: {Gd^T″}-GK([Gly-Gd^T″])WHCYTYFPHHYCLYGK(Gd^T″)
modifications: disulfide 5-14 (inferred)
B5: Compound ID 994 (peptide)
peptide: {Gd^T″}-GQWHCYTYFPHHYCLYGK(Gd^T″)
modifications: disulfide 5-14 (inferred); not fully specified (C-terminus)
B6: Compound ID 974 (peptide)
peptide: {Gd^T″}-GK([Gly-Gd^T″])WHCYTYFPHHYCVYGK(Gd^T″)
modifications: disulfide 5-14 (inferred); not fully specified (C-terminus)
B7: Compound ID 988 (peptide)
peptide: {Gd^T″}-GK([Gly-Gd^T″])WHCYTYFPHHYCLY[dY]K(Gd^T″)
modifications: disulfide 5-14 (inferred); not fully specified (C-terminus)
B8: Compound ID 985 (peptide)
peptide: {Gd^T″}-GK([Gly-Gd^T″])WHCYTYFPHHYCLYFK(Gd^T″)
modifications: disulfide 5-14 (inferred); not fully specified (C-terminus)
B9: Compound ID 993 (peptide)
peptide: {Gd^T″}-GQWHCYTK(Gd^T″)FPHHYCLYGK(Gd^T″)
modifications: disulfide 5-14 (inferred); not fully specified (C-terminus)
B10: Compound ID 975 (peptide)
peptide: {Gd^T″}-GK([Gly-Gd^T″])WHCYTYFPHHYCVYYK(Gd^T″)
modifications: disulfide 5-14 (inferred); not fully specified (C-terminus)
B11: Compound ID 976 (peptide)
peptide: {Gd^T″}-GK([Gly-Gd^T″])WHCTTYFPHHYCLYYK(Gd^T″)
modifications: disulfide 5-14 (inferred); not fully specified (C-terminus)
B12: Compound ID 989 (peptide)
peptide: {Gd^T″}-GK([Gly-Gd^T″])WHCYTYFPHHYCLYVK(Gd^T″)
modifications: disulfide 5-14 (inferred); not fully specified (C-terminus)
B13: Compound ID 987 (peptide)
peptide: {Gd^T″}-GK([Gly-Gd^T″])WHCYTYFPHHYCLYYK(Gd^T″)
modifications: disulfide 5-14 (inferred); not fully specified (C-terminus)
B14: Compound ID 919 (peptide)
peptide: GQWHCTTYFPHHYCLYG
modifications: disulfide 5-14 (inferred); not fully specified (N-terminus)
B15: Compound ID 932 (peptide)
peptide: {Gd^T(3)}-GQWHCTTRFPHHYC[hPhe]YG
modifications: disulfide 5-14
B16: Compound ID 955 (peptide)
peptide: {Gd^T″}-GQWHCTTRFPHHYCLYGK(K(Gd^T)Gd^T)
modifications: disulfide 5-14 (inferred); reading uncertain
B17: Compound ID 914 (peptide)
peptide: {Gd^T″}-GQWHCTTYFPHH[dY]CLYG
modifications: disulfide 5-14 (inferred); not fully specified (C-terminus)
B18: Compound ID 937 (peptide)
peptide: {Gd^T″}-AWHCTTRFPAHYCLYG
modifications: disulfide 4-13 (inferred)
B19: Compound ID 912 (peptide)
peptide: {Gd^T″}-PPWHCTTLFPHH[dY]CLYG
modifications: disulfide 5-14 (inferred); not fully specified (C-terminus)
B20: Compound ID 992 (peptide)
peptide: {Gd^T(3)}-GK([Gly-Gd^T(3)])WHCYTYFPHH[1Nal]CLYG
modifications: disulfide 5-14; not fully specified (C-terminus)
B21: Compound ID 925 (peptide)
peptide: Cbz-GQWHCTTRFPHHYCLYGK
modifications: disulfide 5-14 (inferred); not fully specified (residue 18)
B22: Compound ID 916 (peptide)
peptide: {Gd^T″}-GQWHCTT[Tyr(3-Cl)]FPHH[dY]CLYG
modifications: disulfide 5-14 (inferred); not fully specified (C-terminus)
B23: Compound ID 896 (peptide)
peptide: {Gd^T(3)}-GQWH[Pen]TTRFPHHYCLYG
modifications: disulfide 5-14; not fully specified (C-terminus)
B24: Compound ID 960 (peptide)
peptide: {Gd^T″}-K(Gd^T″)K(K(Gd^T)Gd^T)GQWHCTTYFPHHYCLYG
modifications: disulfide 7-16 (inferred); reading uncertain

T2 sequence (P02454 152-1207, chain 1 of 2): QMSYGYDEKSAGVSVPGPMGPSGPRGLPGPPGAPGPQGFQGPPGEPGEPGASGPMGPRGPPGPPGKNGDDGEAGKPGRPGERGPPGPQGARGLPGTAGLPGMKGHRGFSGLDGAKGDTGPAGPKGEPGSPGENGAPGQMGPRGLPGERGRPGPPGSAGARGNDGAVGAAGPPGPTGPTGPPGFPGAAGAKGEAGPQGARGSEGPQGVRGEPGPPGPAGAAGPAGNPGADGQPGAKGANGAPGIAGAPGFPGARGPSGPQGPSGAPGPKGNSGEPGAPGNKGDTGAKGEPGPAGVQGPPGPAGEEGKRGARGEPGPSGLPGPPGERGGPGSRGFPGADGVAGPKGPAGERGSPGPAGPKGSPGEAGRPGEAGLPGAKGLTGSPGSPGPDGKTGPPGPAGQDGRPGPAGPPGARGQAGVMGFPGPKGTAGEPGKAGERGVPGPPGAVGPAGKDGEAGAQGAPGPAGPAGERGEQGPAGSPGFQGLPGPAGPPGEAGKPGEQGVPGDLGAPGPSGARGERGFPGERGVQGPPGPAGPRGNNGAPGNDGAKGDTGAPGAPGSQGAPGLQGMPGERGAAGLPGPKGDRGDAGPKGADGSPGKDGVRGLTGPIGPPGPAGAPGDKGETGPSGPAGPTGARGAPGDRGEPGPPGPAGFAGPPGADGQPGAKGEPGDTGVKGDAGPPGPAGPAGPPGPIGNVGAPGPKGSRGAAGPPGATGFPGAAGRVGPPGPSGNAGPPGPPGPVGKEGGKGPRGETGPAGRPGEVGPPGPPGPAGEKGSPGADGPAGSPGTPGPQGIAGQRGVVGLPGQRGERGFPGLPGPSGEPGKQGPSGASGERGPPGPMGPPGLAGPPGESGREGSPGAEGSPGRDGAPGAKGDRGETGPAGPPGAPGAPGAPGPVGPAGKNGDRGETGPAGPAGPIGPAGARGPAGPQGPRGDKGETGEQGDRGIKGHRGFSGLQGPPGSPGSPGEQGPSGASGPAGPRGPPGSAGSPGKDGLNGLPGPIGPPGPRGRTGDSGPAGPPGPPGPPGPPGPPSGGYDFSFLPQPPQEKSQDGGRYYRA
T2 sequence (P02466 86-1125, chain 2 of 2): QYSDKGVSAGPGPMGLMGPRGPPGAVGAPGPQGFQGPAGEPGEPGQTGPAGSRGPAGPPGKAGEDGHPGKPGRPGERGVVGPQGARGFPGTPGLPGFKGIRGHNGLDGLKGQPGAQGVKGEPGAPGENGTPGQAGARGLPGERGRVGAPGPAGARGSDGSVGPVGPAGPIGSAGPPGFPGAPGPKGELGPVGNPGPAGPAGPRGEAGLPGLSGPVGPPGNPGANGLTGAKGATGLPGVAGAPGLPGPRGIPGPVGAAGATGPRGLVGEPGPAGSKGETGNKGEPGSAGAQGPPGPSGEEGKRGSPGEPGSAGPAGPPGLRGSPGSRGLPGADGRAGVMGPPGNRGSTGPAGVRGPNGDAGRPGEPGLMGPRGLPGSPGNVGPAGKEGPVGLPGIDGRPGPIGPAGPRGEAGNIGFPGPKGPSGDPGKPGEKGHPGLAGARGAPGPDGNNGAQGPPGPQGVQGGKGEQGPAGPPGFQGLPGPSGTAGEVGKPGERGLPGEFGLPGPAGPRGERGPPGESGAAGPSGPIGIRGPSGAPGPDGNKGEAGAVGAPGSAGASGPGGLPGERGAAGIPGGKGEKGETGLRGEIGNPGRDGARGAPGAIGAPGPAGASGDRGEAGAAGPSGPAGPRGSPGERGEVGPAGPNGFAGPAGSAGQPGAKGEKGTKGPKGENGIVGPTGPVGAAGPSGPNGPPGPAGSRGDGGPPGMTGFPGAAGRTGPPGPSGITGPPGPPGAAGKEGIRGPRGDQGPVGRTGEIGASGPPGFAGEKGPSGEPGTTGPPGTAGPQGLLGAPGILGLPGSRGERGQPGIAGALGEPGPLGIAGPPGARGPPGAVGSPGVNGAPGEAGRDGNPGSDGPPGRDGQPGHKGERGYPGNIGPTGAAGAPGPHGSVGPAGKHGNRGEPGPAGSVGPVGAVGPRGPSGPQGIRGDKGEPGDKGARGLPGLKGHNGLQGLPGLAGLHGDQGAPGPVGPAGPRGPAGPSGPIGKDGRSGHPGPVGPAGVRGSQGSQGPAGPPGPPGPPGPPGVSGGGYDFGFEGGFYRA

The target of one experiment is T1, human collagen type I, acid soluble, extracted from placenta (Sigma C7774) (human, UniProt P02452 162-1218; P08123 80-1119).
T1 construct: tissue extract, gelled and dried in wells; also called dried human collagen; h-Collagen
T1 sequence (P02452 162-1218 limits assumed, chain 1 of 2): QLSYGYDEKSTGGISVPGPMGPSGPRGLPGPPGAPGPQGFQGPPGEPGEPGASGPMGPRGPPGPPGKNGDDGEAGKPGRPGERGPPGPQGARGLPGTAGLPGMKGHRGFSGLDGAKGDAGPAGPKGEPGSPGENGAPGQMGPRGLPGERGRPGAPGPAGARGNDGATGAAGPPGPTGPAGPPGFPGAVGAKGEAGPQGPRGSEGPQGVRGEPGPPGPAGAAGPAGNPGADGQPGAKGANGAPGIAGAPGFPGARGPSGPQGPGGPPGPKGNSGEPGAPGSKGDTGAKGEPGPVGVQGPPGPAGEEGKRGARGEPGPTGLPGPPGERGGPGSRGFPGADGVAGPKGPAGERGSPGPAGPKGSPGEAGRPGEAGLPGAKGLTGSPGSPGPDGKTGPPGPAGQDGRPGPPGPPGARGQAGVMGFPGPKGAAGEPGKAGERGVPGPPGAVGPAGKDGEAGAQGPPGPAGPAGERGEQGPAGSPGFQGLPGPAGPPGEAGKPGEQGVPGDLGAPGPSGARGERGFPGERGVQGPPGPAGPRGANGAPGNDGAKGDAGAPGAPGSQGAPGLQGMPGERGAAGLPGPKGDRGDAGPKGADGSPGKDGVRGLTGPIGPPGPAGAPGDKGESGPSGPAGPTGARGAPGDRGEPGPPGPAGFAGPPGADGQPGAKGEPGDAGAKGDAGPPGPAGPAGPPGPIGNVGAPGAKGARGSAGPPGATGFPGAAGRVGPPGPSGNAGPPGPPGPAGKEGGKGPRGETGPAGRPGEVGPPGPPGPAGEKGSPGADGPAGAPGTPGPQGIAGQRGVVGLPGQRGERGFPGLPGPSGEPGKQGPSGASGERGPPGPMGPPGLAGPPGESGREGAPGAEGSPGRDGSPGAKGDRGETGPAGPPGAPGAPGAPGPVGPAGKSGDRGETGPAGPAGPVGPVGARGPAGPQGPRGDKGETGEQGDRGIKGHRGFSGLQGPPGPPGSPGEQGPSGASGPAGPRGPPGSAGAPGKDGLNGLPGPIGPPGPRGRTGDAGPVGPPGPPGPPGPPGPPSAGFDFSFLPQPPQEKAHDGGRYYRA
T1 sequence (P08123 80-1119 limits assumed, chain 2 of 2): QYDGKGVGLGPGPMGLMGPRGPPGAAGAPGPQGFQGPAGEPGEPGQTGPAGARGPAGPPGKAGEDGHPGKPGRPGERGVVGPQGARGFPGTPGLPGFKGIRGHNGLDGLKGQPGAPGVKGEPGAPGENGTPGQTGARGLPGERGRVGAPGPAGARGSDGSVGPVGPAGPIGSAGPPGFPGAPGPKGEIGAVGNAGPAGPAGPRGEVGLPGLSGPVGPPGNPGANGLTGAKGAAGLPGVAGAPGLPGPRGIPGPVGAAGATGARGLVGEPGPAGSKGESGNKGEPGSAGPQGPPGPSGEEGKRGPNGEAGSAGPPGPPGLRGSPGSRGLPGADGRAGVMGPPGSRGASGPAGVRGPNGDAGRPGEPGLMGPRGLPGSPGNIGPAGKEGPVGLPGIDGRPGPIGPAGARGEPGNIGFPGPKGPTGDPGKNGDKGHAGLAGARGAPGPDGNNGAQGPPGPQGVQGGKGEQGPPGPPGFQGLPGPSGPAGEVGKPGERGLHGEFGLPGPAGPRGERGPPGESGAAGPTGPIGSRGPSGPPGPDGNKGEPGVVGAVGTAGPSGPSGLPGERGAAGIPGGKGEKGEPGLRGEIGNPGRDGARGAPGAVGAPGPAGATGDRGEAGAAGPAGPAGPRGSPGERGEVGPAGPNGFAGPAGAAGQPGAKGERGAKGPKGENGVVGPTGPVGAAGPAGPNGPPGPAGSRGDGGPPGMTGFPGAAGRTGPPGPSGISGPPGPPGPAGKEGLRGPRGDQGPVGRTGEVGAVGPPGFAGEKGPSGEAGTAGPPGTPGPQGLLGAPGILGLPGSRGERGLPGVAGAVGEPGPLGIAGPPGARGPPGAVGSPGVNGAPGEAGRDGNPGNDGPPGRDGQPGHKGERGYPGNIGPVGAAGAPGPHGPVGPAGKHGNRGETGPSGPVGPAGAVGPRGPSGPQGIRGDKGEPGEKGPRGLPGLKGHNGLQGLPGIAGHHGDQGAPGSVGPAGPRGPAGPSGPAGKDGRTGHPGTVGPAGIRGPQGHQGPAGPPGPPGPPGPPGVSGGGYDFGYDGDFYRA
As to the kind of experiment: dried collagen assay.
With B1, the “% bound” value came to 54%.
On the same count and under the same terms, the result for B2 reads 14%; that for B3, 19%; that for B4, 76%.
On the same count and under the same terms, the result for B5 reads 86%.
Still for that read-out and setting: the result for B6 reads 71%; that for B7, 69%; that for B8, 56%.
Regarding B9, the “% bound” value came out at 75%.
As for B10, the “% bound” value was found to be 70%.
Regarding B11, the “% bound” value worked out at 62%.
Same read-out and setting: for B12 the value was 67%; for B13, 62%.
For the molecule B14, the “% bound” value worked out at 93%.
For B15, the “% bound” value was 59%.
As to B16, the “% bound” value is 51%.
For the molecule B17, the “% bound” value worked out at 19%.
Still for that read-out and setting: for B18 the value was 11%; for B19, 20%; for B20, 75%.
For the molecule B21, the “% bound” value turned out to be 64%.
The same measure, in the same setting: the result for B22 reads 23%.
The same measure, in the same setting: the result for B23 reads 50%; that for B24, 30%.

A further experiment concerns the target T2, rat collagen, acid soluble, type I, rat tail (Upstate 08-115) (rat, UniProt P02454 152-1207; P02466 86-1125).
T2 construct: tissue extract, gelled and dried in wells; also called dried rat collagen
As to the kind of experiment: dried collagen assay.
As for B1, the “% bound” value turned out to be 55%.
On to B2, for which the “% bound” value amounted to 0%.
Still for that read-out and setting: the result for B3 reads 0%; that for B4, 67%.
With B5, the “% bound” value came to 84%.
On to B6, for which the “% bound” value was determined as 69%.
Still for that read-out and setting: for B7 the value was 71%; for B8, 68%.
As for B9, the “% bound” value is 70%.
On the same count and under the same terms, for B10 the value was 64%; for B11, 57%.
Same read-out and setting: the result for B12 reads 74%; that for B13, 68%.
The same measure, in the same setting: for B14 the value was 93%.
As to B15, the “% bound” value worked out at 79%.
On the same count and under the same terms, the result for B16 reads 36%.
As for B17, the “% bound” value amounted to 0%.
Still for that read-out and setting: for B18 the value was 14%; for B19, 0%.
The same measure, in the same setting: the result for B20 reads 64%; that for B21, 62%.
As for B22, the “% bound” value came out at 0%.
B23: the “% bound” value was 41%.
Same read-out and setting: for B24 the value was 34%.
